{
  "source": "paper PMC3384344",
  "about": "(Nucleic Acids Research, 2012)",
  "molecules": {"B1": {"name": "UmuD′, cleaved form of UmuD (homodimer UmuD′2) (natural protein)", "chain": "GFPSPAADYVEQRIDLNQLLIQHPSATYFVKASGDSMIDGGISDGDLLIVDSAITASHGDIVIAAVDGEFTVKKLQLRPTVQLIPMNSAYSPITISSEDTLDVFGVVIHVVKAMR"}, "B2": {"name": "UmuD, wild-type full-length (homodimer UmuD2) (natural protein)", "chain": "MLFIKPADLREIVTFPLFSDLVQCGFPSPAADYVEQRIDLNQLLIQHPSATYFVKASGDSMIDGGISDGDLLIVDSAITASHGDIVIAAVDGEFTVKKLQLRPTVQLIPMNSAYSPITISSEDTLDVFGVVIHVVKAMR"}, "B3": {"name": "UmuD-S60A, non-cleavable full-length UmuD variant (natural protein)", "chain": "B2 chain with S60A"}, "B4": {"name": "UmuD3A (UmuD containing the triple mutation T14A, L17A and F18A) (natural protein)", "chain": "B2 chain with T14A, L17A, F18A"}},
  "key": {"[1]": {"biological_target": "DNA polymerase III α subunit, wild-type full-length (E. coli) (UniProt P10443)", "sequence (P10443 whole entry)": "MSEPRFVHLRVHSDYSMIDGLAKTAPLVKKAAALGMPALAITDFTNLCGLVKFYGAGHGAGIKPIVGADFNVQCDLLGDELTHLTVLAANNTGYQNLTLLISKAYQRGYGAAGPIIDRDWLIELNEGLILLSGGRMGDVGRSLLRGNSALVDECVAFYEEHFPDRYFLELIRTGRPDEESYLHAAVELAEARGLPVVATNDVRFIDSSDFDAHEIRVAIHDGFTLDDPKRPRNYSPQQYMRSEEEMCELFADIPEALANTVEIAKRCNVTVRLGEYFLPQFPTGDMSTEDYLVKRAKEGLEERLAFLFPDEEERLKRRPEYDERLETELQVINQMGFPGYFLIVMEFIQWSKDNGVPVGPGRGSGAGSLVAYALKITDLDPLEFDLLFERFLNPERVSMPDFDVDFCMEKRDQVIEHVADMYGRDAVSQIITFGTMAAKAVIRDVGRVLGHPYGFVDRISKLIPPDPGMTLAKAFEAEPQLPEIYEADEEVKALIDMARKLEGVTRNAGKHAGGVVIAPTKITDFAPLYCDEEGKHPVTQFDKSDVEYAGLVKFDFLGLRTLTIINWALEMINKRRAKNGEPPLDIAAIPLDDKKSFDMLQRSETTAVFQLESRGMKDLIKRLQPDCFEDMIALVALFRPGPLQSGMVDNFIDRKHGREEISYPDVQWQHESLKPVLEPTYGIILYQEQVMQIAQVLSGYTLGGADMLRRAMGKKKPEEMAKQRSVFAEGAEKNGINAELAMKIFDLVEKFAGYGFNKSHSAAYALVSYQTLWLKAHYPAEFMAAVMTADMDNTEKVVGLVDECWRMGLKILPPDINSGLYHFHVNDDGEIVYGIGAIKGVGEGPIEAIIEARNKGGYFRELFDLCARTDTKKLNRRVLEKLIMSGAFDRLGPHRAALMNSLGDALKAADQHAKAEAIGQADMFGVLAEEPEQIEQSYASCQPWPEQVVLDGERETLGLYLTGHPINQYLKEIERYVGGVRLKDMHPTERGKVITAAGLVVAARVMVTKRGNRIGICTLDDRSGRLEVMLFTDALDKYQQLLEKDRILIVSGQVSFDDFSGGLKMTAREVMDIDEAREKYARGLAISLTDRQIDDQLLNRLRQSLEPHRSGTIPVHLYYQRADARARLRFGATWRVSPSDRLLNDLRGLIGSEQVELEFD", "test": "other fluorescence titration"}, "[2]": {"biological_target": "T1, DNA polymerase III α subunit, wild-type full-length (E. coli, UniProt P10443 1-1160)", "T1 sequence (P10443 whole entry)": "as above", "test": "other fluorescence titration"}, "[3]": {"biological_target": "DNA polymerase III α subunit truncation α917–1160 (E. coli, UniProt P10443 917-1160)", "sequence (P10443 917-1160)": "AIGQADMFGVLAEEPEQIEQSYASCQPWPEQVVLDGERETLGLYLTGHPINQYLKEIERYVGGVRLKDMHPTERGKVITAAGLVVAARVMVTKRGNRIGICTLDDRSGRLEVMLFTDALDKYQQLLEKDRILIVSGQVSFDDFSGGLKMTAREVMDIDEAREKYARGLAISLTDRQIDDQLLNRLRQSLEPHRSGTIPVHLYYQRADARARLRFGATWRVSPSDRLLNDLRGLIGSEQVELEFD", "test": "other fluorescence titration"}, "[4]": {"biological_target": "T2, DNA polymerase III α subunit truncation α1–280 (E. coli, UniProt P10443 1-280)", "T2 sequence (P10443 1-280)": "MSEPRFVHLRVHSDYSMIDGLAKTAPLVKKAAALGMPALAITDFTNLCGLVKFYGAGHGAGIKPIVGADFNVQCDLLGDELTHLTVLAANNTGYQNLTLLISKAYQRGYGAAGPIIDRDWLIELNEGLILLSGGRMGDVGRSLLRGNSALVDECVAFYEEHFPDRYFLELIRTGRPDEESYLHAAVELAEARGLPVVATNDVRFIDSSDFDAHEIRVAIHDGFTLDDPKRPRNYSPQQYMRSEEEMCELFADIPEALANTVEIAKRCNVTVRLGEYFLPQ", "test": "other fluorescence titration"}, "[5]": {"biological_target": "DNA polymerase III α subunit truncation α1–956 (E. coli, UniProt P10443 1-956)", "sequence (P10443 1-956)": "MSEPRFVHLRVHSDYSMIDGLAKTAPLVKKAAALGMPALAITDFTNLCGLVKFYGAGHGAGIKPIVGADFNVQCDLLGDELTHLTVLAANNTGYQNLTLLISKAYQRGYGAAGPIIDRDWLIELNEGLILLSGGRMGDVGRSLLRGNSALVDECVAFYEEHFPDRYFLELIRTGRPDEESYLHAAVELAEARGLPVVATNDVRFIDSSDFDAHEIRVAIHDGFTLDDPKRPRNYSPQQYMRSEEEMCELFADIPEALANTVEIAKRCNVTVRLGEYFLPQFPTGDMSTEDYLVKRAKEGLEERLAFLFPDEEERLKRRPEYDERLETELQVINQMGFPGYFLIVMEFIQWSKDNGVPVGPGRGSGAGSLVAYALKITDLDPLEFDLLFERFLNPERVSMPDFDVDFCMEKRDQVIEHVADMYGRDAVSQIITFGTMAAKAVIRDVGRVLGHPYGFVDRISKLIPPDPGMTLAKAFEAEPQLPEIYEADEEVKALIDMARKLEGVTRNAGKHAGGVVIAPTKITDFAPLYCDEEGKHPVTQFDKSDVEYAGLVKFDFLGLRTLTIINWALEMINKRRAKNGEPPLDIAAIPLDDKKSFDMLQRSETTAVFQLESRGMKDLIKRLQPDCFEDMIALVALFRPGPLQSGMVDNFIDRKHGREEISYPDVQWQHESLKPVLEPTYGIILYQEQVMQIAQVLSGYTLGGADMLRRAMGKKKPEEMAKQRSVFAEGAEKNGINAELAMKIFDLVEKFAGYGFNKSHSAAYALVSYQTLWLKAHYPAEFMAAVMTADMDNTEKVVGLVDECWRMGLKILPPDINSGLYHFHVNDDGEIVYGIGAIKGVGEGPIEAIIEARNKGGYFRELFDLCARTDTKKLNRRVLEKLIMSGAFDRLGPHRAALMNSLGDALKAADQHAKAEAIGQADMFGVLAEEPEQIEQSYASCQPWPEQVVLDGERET", "test": "other fluorescence titration"}, "[6]": {"biological_target": "DNA polymerase III α subunit truncation α1–975 (E. coli, UniProt P10443 1-975)", "sequence (P10443 1-975)": "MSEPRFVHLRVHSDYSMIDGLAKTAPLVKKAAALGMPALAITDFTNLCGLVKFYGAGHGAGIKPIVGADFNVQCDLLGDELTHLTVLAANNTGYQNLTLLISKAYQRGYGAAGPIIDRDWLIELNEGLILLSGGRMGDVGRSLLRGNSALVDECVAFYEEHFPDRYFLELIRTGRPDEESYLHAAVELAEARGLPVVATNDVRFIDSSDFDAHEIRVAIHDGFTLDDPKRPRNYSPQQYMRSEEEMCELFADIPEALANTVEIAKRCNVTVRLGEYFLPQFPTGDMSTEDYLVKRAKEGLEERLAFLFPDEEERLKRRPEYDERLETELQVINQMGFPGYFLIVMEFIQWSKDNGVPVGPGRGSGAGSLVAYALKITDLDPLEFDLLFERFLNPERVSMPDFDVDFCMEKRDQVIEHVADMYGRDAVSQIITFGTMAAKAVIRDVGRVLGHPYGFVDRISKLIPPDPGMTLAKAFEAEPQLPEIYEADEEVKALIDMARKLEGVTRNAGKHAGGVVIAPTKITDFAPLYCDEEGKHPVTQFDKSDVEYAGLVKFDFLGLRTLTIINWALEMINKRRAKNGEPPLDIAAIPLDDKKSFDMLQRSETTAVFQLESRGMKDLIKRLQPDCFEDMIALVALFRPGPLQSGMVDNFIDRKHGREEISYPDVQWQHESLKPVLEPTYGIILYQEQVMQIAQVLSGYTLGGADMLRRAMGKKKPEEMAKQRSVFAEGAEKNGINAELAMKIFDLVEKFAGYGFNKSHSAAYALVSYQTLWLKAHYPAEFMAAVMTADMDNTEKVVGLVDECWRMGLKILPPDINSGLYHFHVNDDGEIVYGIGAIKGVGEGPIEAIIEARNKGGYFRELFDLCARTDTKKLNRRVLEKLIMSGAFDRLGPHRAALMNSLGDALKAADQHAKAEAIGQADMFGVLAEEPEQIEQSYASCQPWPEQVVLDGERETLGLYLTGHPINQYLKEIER", "test": "other fluorescence titration"}, "[7]": {"biological_target": "T2, DNA polymerase III α subunit truncation …", "test": "cell-based or functional assay"}, "[8]": {"biological_target": "T1, DNA polymerase III α subunit, wild-type …", "test": "other fluorescence titration", "remark": "listed apart in the source"}, "cross-linking": {"biological_target": "the molecule itself", "test": "cross-linking"}},
  "note": "Where a chain is given by its changes, count along the chain named. Names and notes keep the numbering of the source. Where two headings read alike, the source gives them in different places.",
  "data": [
    {"molecule": "1:1 mixture of UmuD-S60A and UmuD′-S60A (from UniProt P0AG11) (complex)", "values": [
      {"measurement": "Kd", "setting": "[1]", "value": 4.6, "unit": "µM"}
    ]},
    {"molecule": "B1", "values": [
      {"measurement": "Kd", "setting": "[2]", "value": "10.9 ± 1.6", "unit": "µM"},
      {"measurement": "Kd", "setting": "[3]", "value": "3.8 ± 0.9", "unit": "µM"},
      {"measurement": "Kd", "setting": "[4]", "value": "8.6 ± 1", "unit": "µM"}
    ]},
    {"molecule": "B2", "values": [
      {"measurement": "Kd", "setting": "[5]", "value": "14.7 ± 1.9", "unit": "µM"},
      {"measurement": "Kd", "setting": "[6]", "value": "3.1 ± 1", "unit": "µM"},
      {"measurement": "RecA/ssDNA-facilitated UmuD cleavage at 30°C with 0–40 µM α1–280", "setting": "[7]", "value": "~4 fold more α1–280 than wild-type α"},
      {"measurement": "Kd", "setting": "[2]", "value": "1.1 ± 0.6", "unit": "µM"},
      {"measurement": "Kd", "setting": "[3]", "value": "13.9 ± 5.1", "unit": "µM"},
      {"measurement": "Kd", "setting": "[4]", "value": "7.3 ± 1.4", "unit": "µM"},
      {"measurement": "Kd", "setting": "[8]", "value": "21.7 ± 11.7", "unit": "µM"}
    ]},
    {"molecule": "B3", "values": [
      {"measurement": "Kd", "setting": "[2]", "value": "10.6 ± 2.9", "unit": "µM"},
      {"measurement": "Kd", "setting": "[3]", "value": "0.7 ± 0.3", "unit": "µM"},
      {"measurement": "Kd", "setting": "[4]", "value": "10.3 ± 4.3", "unit": "µM"},
      {"measurement": "binding result", "setting": "cross-linking", "value": "binds"}
    ]},
    {"molecule": "B4", "values": [
      {"measurement": "Kd", "setting": "[2]", "value": "8.7 ± 1.5", "unit": "µM"},
      {"measurement": "Kd", "setting": "[3]", "value": "3.4 ± 1", "unit": "µM"},
      {"measurement": "Kd", "setting": "[4]", "value": "9.3 ± 3.2", "unit": "µM"}
    ]}
  ]
}
